According to US20140377216A1, “ANTICANCER FUSION PROTEIN” (ADAMED SP. Z.O.O., priority 2011, published 2014):

Test system: HCT116
Test: MTT cytotoxicity test on HCT116
Type: cell-based, human
Conditions: continuous incubation over 72 h

B1: Ex. 3^a: fusion protein SEQ. No. 3: (TRAIL121-281)-MMP-UROKIN-(SEQ. No. 35, synthetic 15-amino acids lytic peptide) (protein)
chain: RVAAHITGTRGRSNTLSSPNSKNEKALGRKINSWESSRSGHSFLSNLHLRNGELVIHEKGFYYIYSQTYFRFQEEIKENTKNDKQMVQYIYKYTSYPDPILLMKSARNSCWSKDAEYGLYSIYQGGIFELKENDRIFVSVTNEHLIDMDHEASFFGAFLVGPLGLAGRVVRKLLLRLLKKLLRLLK
modifications: synthesized, fusion protein comprising: a fragment of TRAIL protein, synthetic 15-amino acids lytic peptid and cleavage site sequences recognized by urokinase and metalloprotease.
B1 gave an IC50 of 1.8785 µg/mL.
